Here are results for 3 molecules from paper PMC6039102 (Nature, 2018).

First the molecules themselves.
B1: KSHV major capsid protein (MCP) (natural protein)
chain: MEATLEQRPFPYLATEANLLTQIKESAADGLFKSFQLLLGKDAREGSVRFEALLGVYTNVVEFVKFLETALAAACVNTEFKDLRRMIDGKIQFKISMPTIAHGDGRRPNKQRQYIVMKACNKHHIGAEIELAAADIELLFAEKETPLDFTEYAGAIKTITSALQFGMDALERGLVDTVLAVKLRHAPPVFILKTLGDPVYSERGLKKAVKSDMVSMFKAHLIEHSFFLDKAELMTRGKQYVLTMLSDMLAAVCEDTVFKGVSTYTTASGQQVAGVLETTDSVMRRLMNLLGQVESAMSGPAAYASYVVRGANLVTAVSYGRAMRNFEQFMARIVDHPNALPSVEGDKAALADGHDEIQRTRIAASLVKIGDKFVAIESLQRMYNETQFPCPLNRRIQYTYFFPVGLHLPVPRYSTSVSVRGVESPAIQSTETWVVNKNNVPLCFGYQNALKSICHPRMHNPTQSAQALNQAFPDPDGGHGYGLRYEQTPNMNLFRTFHQYYMGKNVAFVPDVAQKALVTTEDLLHPTSHRLLRLEVHPFFDFFVHPCPGARGSYRATHRTMVGNIPQPLAPREFQESRGAQFDAVTNMTHVIDQLTIDVIQETAFDPAYPLFCYVIEAMIHGQEEKFVMNMPLIALVIQTYWVNSGKLAFVNSYHMVRFICTHMGNGSIPKEAHGHYRKILGELIALEQALLKLAGHETVGRTPITHLVSALLDPHLLPPFAYHDVFTDLMQKSSRQPIIKIGDQNYDNPQNRATFINLRGRMEDLVNNLVNIYQTRVNEDHDERHVLDVAPLDENDYNPVLEKLFYYVLMPVCSNGHMCGMGVDYQNVALTLTYNGPVFADVVNAQDDILLHLENGTLKDILQAGDIRPTVDMIRVLCTSFLTCPFVTQAARVITKRDPAQSFATHEYGKDVAQTVLVNGFGAFAVADRSREAAETMFYPVPFNKLYADPLVAATLHPLLANYVTRLPNQRNAVVFNVPSNLMAEYEEWHKSPVAAYAASCQATPGAISAMVSMHQKLSAPSFICQAKHRMHPGFAMTVVRTDEVLAEHILYCSRASTSMFVGLPSVVRREVRSDAVTFEITHEIASLHTALGYSSVIAPAHVAAITTDMGVHCQDLFMIFPGDAYQDRQLHDYIKMKAGVQTGSPGNRMDHVGYTAGVPRCENLPGLSHGQLATCEIIPTPVTSDVAYFQTPSNPRGRAACVVSCDAYSNESAERLLYDHSIPDPAYECRSTNNPWASQRGSLGDVLYNITFRQTALPGMYSPCRQFFHKEDIMRYNRGLYTLVNEYSARLAGAPATSTTDLQYVVVNGTDVFLDQPCHMLQEAYPTLAASHRVMLDEYMSNKQTHAPVHMGQYLIEEVAPMKRLLKLGNKVVY

Values joined by “and” are separate entries in the source; they are usually repeats but may differ in a detail not shown here. Equal values may be shown once.

Holding throughout (assay): cryo-EM structure
Series [1] addresses KSHV triplex protein Tri2 (Kaposi's sarcoma-associated herpesvirus (KSHV)).
For series [2], the target named is KSHV triplex protein Tri1 (Kaposi's sarcoma-associated herpesvirus (KSHV)).
The series “cryo-EM structure” deals with the molecule itself.
The target in series [3] is B1.

For orientation: stoichiometry N means a count of units in the complex or per binding partner. Turning to “KSHV triplex protein Tri2 (natural protein)”, the stoichiometry N in series [1] and in series [2] was 2 throughout.

For the molecule B1, the “stoichiometry N” value in the series “cryo-EM structure” was 5 and 6.

B2: KSHV smallest capsid protein (SCP) (natural protein)
chain: MSNFKVRDPVIQERLDHDYAHHPLVARMNTLDQGNMSQAEYLVQKRHYLVFLIAHHYYEAYLRRMGGIQRRDHLQTLRDQKPRERADRVSAASAYDAGTFTVPSRPGPASGTTPGGQDSLGVSGSSITTLSSGPHSLSPASDILTTLSSTTETAAPAVADARKPPSGKKK
In the case of B2, in series [3], the binding result is reported as “binds”.
